Measurements as given in a protein production outcome set (Wang et al. 2014).

Test: label from the status in PepcDB records

| Sequence | protein production |
| --- | --- |
| MLDLNEFLTRKMKIDVLLKEHGWDVGDRSKVVLEVDTIQSDIKKQDYRQVNETRRNDAESKYADYLLLDSTGKPLAIIEAKRTTKDPILGQKQAEEYADDIKTQTGEEVFIFLSNGYQIWLWDRERYGPRQIKGFYSPEDLERLLYQRKYSERETEIDIDGNIVDRAKSVEVATRVVEHIHKGHRKALIVMATGTGKTRVAMAIIDQLMRESRVQRVLFLTDRKALRKQAYEKGYLRYFPEETKEIIHSGNYNSNCRLYVSTIQTFQEIYNQKDRNGKYRISPGAFDLIFSDEAHRSIYSKWKGIFTYLDAIQIGLTATPADMVDRDTFRFFECHDDIPTALYSYEDAVRDGVLCDFRKNISGARTYFQIEGLKPENLTEGEREELIKKGIDPDDINFEGTELEKKVAVKGTSEAIVREFMENCLTDQAGTLPAKTIFFAISKLHAKRLWEAFEKLYPEHKGKLARIIVSEDSRAQQLIKDFEEKPFPRIAISVDMMDTGIDVPEVCNLVFAKPVFSKIKFWQMLGRGTRADGACEHREWLPDGKKEYFKVFDFWNNFEYWNMNPEGAKNESAEAITNRIFLTRLKQLGELMQRRDPASEKAAEKVKAKIISDIESLPRDSVNVREHLQDMEKALSPKLWDNIAIDPVEFLQKKIMPLMKFKPDVNLKEATFTLRCEKLAYALLENDKAEIDRLKTSIAEMVDRLPRTLDSVRAREALMDNVLSRSFWETVSFEDVQLLLSDLAPLMPYMAKEPRETIVIDMSDIIAERKKWEISDGNDPSYVEAYRREVEARIKALAETHPAVRKIKNNEPLTDYDLEQLEETLLNADLTPDNPKLSSHASLSDLYPSRQASLVDFIRQVLGLYSSPSPDALIKDAFQTYIIGNNKHYSSDQLNFILTLQTVFLKKKHIEYSTLWLPPFTNFGTTAPFPMFTQEELNSFIDICKGVEKDIFM | not failed |
| MGHPPQLPGGRCPMSQTMDFDTLRRAMADNYEQPEGPARNARAEQLLTEAEKLNIPLAVIEALGHQLKVYNYSSEKDKMFVPFARLLRMWDERPEDFDEYEIHSLHWVFKWMSAGMLGQPHIPLASIEKWLGEMEHRYRLAGHSERAVRSAEFSVANHIGDLARAERAYAAWLAADRDSMADCHACELHDQGWWQARKGADADALEVWRPVVEGEYVCAHEPHAILASSLVPLLRLGRLDEARAHHLRGFRLIRPMESMRGAYADHVEFCALSGNEARALELLAERPAYFTDSGEPRSKLDFMAVVALLMDRLVELGLGEQTVPGPAGRVWSARELAAHARAEALALAARFDERNGTAHVSERARERMDRRPLVDRLPLGVRSTRPAPTAPRPPAAPDSAPAPAVERDLRDVLAEARGRSDALRPDAMDAWAAVARAAGDHELDARDRAEIADHEAMSRGPEGAPLFERAAELYAEAGDPGEALAARARGAYVRALTGHSDDALRTINDLHRQVRALFAKDGTGVRQTAAVLVGRARILVHRVHETEGAGTTVAAAEEAVRELLEFAEPHIAQVRLASRAAEARAMLGELAALTGDAMTAAELLAQAAEGFLAAGLPWFAVEYEARLAGIARELGDAVEAERAARSALEHGVEYLEPAGQAQLHLQLAEVLGTTGQFGPAAEHALEAAHWADEAGEGPTFGAWARHQLGGFLLQQGRWAEAAEVLESALPDLTAETHGDGALVQTQWWLGDCHTELGEHREAAERWLRAAEIARHWPEQRDHAMLAHLAAEALGHAGLPAEADRAYTRAGDLWRDLGNVHGLARALRARAWLAAREEDELDPARELMAQAVRECEAALEGATEGEDGARERLVAELGHTHRQFGDLVARSVQDGDRGADFQGAFEEALGHVTRAVAVFAPLGASALDLRTGAELAAGWLEADLHRPAEATARARAVLAAYANRQEADDETARARCAEADRMLELLGTRTGQ | failed |
| MKTIKDWQINICLATYNGQKYLRQQLDSIIQQGYTDWICLIRDDGSTDDTVAIIKEYVNRDSRFIFINSNDDRKLGSHRSFYELVNYKKADFYVFSDQDDVWKENRLERYLEEAEKFNQELPLLVYSNWTSVDEKLTVLKEHNPATVIQEQIAFNQINGMVIMMNHELAKLWEYRQIGAHDSYVGTLAYAVGNVAYISDSTVLWRRQVGAESLNNYGRQYGVATFWQMINTSFDRASLIFAQVSDKMSLERKLFFSRFIELKNANLMRRIYLLSKLKLRRKSLKETVAMTILLLTGYGKPKALEHHHHHH | not failed |
| MPAIFTHEGKVEGVPGNYPLTAENLFRIGLALCTLWILDKEIEEPTLSIPETNFVTLALSVGFMNAGGSVNVGKGGDIKLFLQKGEIYVLEFQPLSETDIKKLESILFGRAPIPKKTGEDIGSFKC | not failed |
| SADEAPSSADEAPSSAVEQIVAPVDFSDLTEVALRHVAQIAPLYDVPVTLVHVVEDPTMPSVYEVNASAVRARAAEQRAEEALQSLGAPIEETGVSVSYLVHRGQTTSTVVEATGHRDTLTVMGTKGLSGLRRVMLGSVTEAVIRASDGPVLAVPASAQEASPANE | failed |
| MTKVIVVNGPNLGRLGVRQPDVYGRQDLDTLRKLCAEWGKDLGLEVEVRQTDDEAEMVRWMHQAADEKTPVVMNPAAFTHYSYALADAAHMVIDENLPLMEVHISNPSARDEFRKRSVISPVATGTITGMGFYGYKLALDAVAHLLSE | not failed |
| MTGPLAAARSVAATKSMTAPTVDERPDIKKGLAGVVVDTTAISKVVPQTNSLTYRGYPVQDLAARCSFEQVAFLLWRGELPTDAELALFSQRERASRRVDRSMLSLLAKLPDNCHPMDVVRTAISYLGAEDPDEDDAAANRAKAMRMMAVLPTIVAIDMRRRRGLPPIAPHSGLGYAQNFLHMCFGEVPETAVVSAFEQSMILYAEHGFNASTFAARVVTSTQSDIYSAVTGAIGALKGRLHGGANEAVMHDMIEIGDPANAREWLRAKLARKEKIMGFGHRVYRHGDSRVPTMKRALERVGTVRDGQRWLDIYQVLAAEMASATGILPNLDFPTGPAYYLMGFDIASFTPIFVMSRITGWTAHIMEQATANALIRPLSAYCGHEQRVLPGTF | not failed |
| MSTSWRIRIMLTIHAKLVEAMLAQAHKDHPFEICGVIAGPEKSNLPLRLIPMRNAAQSETFFKFDPQEQLQVWREMEARGEEPIVIYHSHTHTPAYPSRTDVQYASQPQSHYVIVPTDPAYGEEIRSFRILDGMVTEERIRMINSYKAEWELSMEAMVALEHHHHHH | not failed |
| MLKPVALLTPRPSPSRDPAIPDWLLAGKLEPALPRPAAVVRGALLAALDQAQARPLTLLLAPPGFGKTTLLAQWHAHLSTREQGPVAWLSLDEEDADAARFLGHLALALQNAGADHALCATVLHNRDHDPRDATALLIRALRAAPRRISVILDDYDRLGSSPVDELVLRLIEHSGGRLHLVLATRRVPNLPLARLDLHAQLSRIGSTQLALDNTEAQALLGPHVPTPVVDELRNYTEGWPVALQLARLWLQGDTQRQQEVAARFSGRSAQIAAYLAEQVVNDLDPDTRELLLRTSPLERFNAALADAVRQREDSGRLLARLEHFHGLLVPLDGEREWFRYHPLFADFLQQLLDREHPGQSVQLHQRAARWFGDHQHLAEAVRHAWRGNCGELAASYIARAGTWQLLLTHGTHEVRALLRHFDHRTIRDTPALNLTQAHLHIRLGEFSHARLLLERFRDFPAALREPLQRDYTVVVALLRDRLDEICGNPHGLTQIAAQAGALDEDDHLGRGMLLCICATTAIAQGAFAVAERYARNARDTMQRGGSDVGASQAMLSLGQSLFYRGRLSDAEACYQQALSWCARTPQLDRVLEAAAQCLLAQSHYERGHHDDAADLLHPALELLEQHDGGMDVLAAGYGTALGLERVRDHSGRSALLLLEHIEQIAHGRKLARLSELAAAWRLMLLLEHPGNAAIDVLIARTGGESGLAHTLRSPHRWHDRAAMGFALARWHRLAGRSSAALSILGQIEQACLANDNVCHLARTRARIALVLQQRGELVAALPYLYSALDHVALTQSWQAIVELGLPAKAMLRSLRQHDPQTVGGTTRALTIQALLERLSGDDDPAGDIFSERELEVLAQLARGYSNKQIARCLHLSENTVKFHLKNLYRKLDARSREGALAQALQRGLLRGSNQHADQPLQPD | failed |
| MIYLFTGNMGTGKTSRVVSMILNNEDGLFKMKLEDGTEVDRPLYFCHIDGLDKRQFKAHELTEEQIMSAPLRDVIPEGAVLIVDEAHYTYPVRAAGRPVPPYIQELTELRHHGHTVILMTQHPSQLDIFVRNLVSKHVHLERKAIGMKQYYWYKCVTSLDNPAGVSGVEVASWKPPKEAFKYYKSASQHQ | not failed |
| MKKTMAKSLSVIIPACNEIDTISDVIQSVKGLNPLEIIVVANGCTDGTETVAEHLGCKVLRYTEKLGNDVGRAAGAKEAIGDVLLFIDGDFAIQTSKLQLFLNPILYNQADVVLNNLDALFLKRQKPNSITVWRQILNSILEREELKIDSLLAVPHALTKEVVQSIGYECFVNPILAHLRLVQGKWRISRHCAIDVITPNKFRPTEHAAYGTDLSPSEKRMIGDHIEAVAERIVGSDERGGYCDGNRKRDSVYHTLDFEDFYQGWGVTSNLYKGKQLSVIIPVQNEEKTIGNVIEEVRKIEPFEIIVVVNGSSDQTATIAKDKGATTIVYKEALGNDVGRSLGTYFAKGEIVLFIDGDFVIPASELYPFAKAIADGTDVALNDLNHYLDLRVPLHLVTAFKYALNLACDRKDLGVGSLVAVPNAFSRKCLKQIGYRSLLAPCVAQVKAILSGFEVACVSRVEVDKMNRIRPSEHLAKIGHPPAVLRIIGDHIEGLEQLIGLTGSRGGFHDGNRKRDIL | failed |
| DVARVQRLAAALATAGTVRDVSQAVVAALRRPLRADRIALAELENDRLVVTVLDPPDPESWPELWRLEWRTEWPDAPVRAMPTLAAALREGRARIWPAGTGDLEPALADVGPGGLAVLPLPAGGRMAGACLIGWDTPHDFGPDERALLTASAGLAGQALMRAHAFDAEHELVGMLQRQL | failed |
| MDISMKQSKRNLWWSVCAGLLFCSWGCSSQVSDKPVTLETLLDEMVSVEEQALYPVPSYTCRQESSYDRASVSPDSAGWFANSDGFGIKRVDTVAGRIEKVMFDEVGPGAITRIWITTIDKRGTWRFYFDGSDQPGWIIPAYDLMRINVPGLGKGMLQAHTSYTPEGKGGNTLFLPIPYARGCKVTFEDEPGVNPTPKYYHINFRKYPEGTQVETFSKEVVERAAQKIAEVDNRLLQPVAGRKGEILREEKSILPSDSLVIPLPAGENAVYEVKFNIRIDNPEQYAQLMRELVFSAGFDGKQTVWVPLSDFSGGGMGAPKVDSWYLTSDGKGNISSRWLMPYQKDGVLKVLNLSSRSVAATMEVNVAPLKWNKDRSLYFYASWRQENGIYIHDKPEEADQCVEWNFATLKGRGVYKGDLLSLYNHAPLWYGEGDEKIWVDDDTFPSHFGTGTEDYYNSSWAPVVPFYTPFGGAPRADLESSHGYNAFYRTRHLDGIPFNKSFKFDIEMLGWKRGEADYATTIYWYGDPEAQVFGTSGIEEARRQLLPAVEASADLEHHHHHH | not failed |
| MRVLILGSGVIGTTSAWYLSKAGCEVVVVDRQSGAGLETSYANGGQLSFGYTSPWAAPGVPLKAVRWLFERHAPLSIRPTTDWNQYVWLARMLRHCSAERYAVNKSRMLRLSEYSREALEALSAETGITFEGRRLGTIQLFRTQQQLDGAVRDIELLTQYGIPYEVLSPHQLAKFEPGLADGSVRFVGALRLPHDQTGDCCLFTQRLAALAAKRGVEFRYGCTVQRLEVDGPRVTGAWINGALERADCCVVALGSYSPLLLAPLGLRLPVYPLKGFSLTLPMIDASRAPVSTVLDESYKVAVTRFDERIRVAGMAEVSGYDVSLNPRRRSTLEMVVQDVYPGCGDLGRGEFWTGLRPATPDGTPVIGATPYQGLFLNTGHGTLGWTMSSGSGRYLADLICCRPCEISSEGLDMFRYLVSTIPCPQECAPCVPPTP | failed |
| MPDSPFVSVVVPVYNDPEGVKDTLHALVDQRDAPAFEVRVVDNDSTDETMQVIEAFAADHPEIYCHTETEIQSSYAARNTGIEHAGGDVIVFLDADVVVERTCLRDISRTFEGSDVDYVGCNVQMYNPGETDTFWTKYDLAMGLPVEHYLRRKRFAPTCALAVRREVIEAVGTFDDELVSGGDKEFGNRVSEAGFRMGFAEGIVAKHPARTSLKRNIQKSTRIGKGQVQLWAGYGLAAHPVSYTRYLPPDPQRVRNRRDAQFDLVSIYLAEILLKYVQSATVLYLYLKRLLKRVSGDTT | failed |
